Test results as given in patent US12605458B2, “Antibody-drug conjugate having acidic self-stabilization junction” (priority 2017, dated 2026).

Legend:
[1] = Plasma stability in vitro (DAR by RP-HPLC after incubation in human plasma); type: in vitro ADME; conditions: 37° C.
Protocol: A fixed amount of ADC sample was added to human plasma for which human IgG had already been removed, with each ADC tube prepared in triplicate; next, incubation in a 37° C. water bath was performed for 0 hours and 72 hours, after which the ADC sample was removed and 100 μl of Protein A (MabSelect SuRe™ LX Lot: #10221479GE, washed with PBS) was added to each tube; adsorption was then allowed to proceed under agitation on a vertical mixer for two hours, followed by washing and elution to obtain incubated ADC; the plasma stability of each incubated ADC sample was then determined via RP-HPLC.

[2] = Hydrophobic interaction chromatography (HIC) assay; type: physicochemical; conditions: eight drug units per antibody, FIG. 4
Protocol: ADC analysis was performed using hydrophobic interaction chromatography (HIC). Elution was performed using 0 to 100% Mobile Phase B (MPB), where Mobile Phase A (MPA) consisted of 1.5 M ammonium sulfate and 0.025 M sodium phosphate, and MPB consisted of 0.025 M sodium phosphate and 25% isopropanol. The sample loading volume was approximately 20 μg, and gradient elution was completed in 15 minutes. 280 nm UV was used for detection, and the stronger the […] sample, the later the peak produced.
Following complete reduction of IgG1 antibody to 8 thiols per antibody according to General Procedure A, corresponding antibody-drug conjugates were prepared via non-specific coupling. ADCs with acidic stabilization junctions and conventional junctions ADC (i.e., MC-VC-PAB-MMAE) with eight drug units per antibody were further separated and purified via hydrophobic interaction chromatography and hydrophobic interaction chromatography (HIC) was used to perform an ADC analysis according to General Procedure C. ADCs with greater hydrophobicity, or larger drug/molecule ratios eluted at later retention times.

[3] = SEC-HPLC detection of degree of aggregation; type: physicochemical; conditions: 280 nm
Protocol: ADC samples obtained via conjugation were centrifuged at 14,000 rpm for five minutes and the supernatant was taken for analysis. Instrument: Waters e2695 (2489UV/Vis) Chromatography column: TSKgel G3000SWXL (7.8×300 mm, 5 μm) Mobile phase: A: 50 mM PB, 300 mM NaCl, 200 mM Arg, 5% IPA, pH 6.5 Mobile Phase A was eluted isocratically for 30 minutes; flow rate: 0.714 ml/min, column temperature: 25° C., detection wavelength: 280 nm.

MC-VC-PAB-MMAE
0 h DAR ([1]; human plasma with human IgG removed, 0 hours, RP-HPLC): 7.2 | 72 h DAR ([1]; human plasma with human IgG removed, 72 hours, RP-HPLC): 2.3 | drug loss / change in DAR during plasma incubation (in words) ([1]; human plasma, 72 hours): very significant reduction in DAR | HIC retention time (hydrophobicity, in words) [2]: longest retention time | Aggregation Rate [3]: 32.46% | Monomer Ratio [3]: 67.51%
